Consider 15 proteins from the PETadex activity labels.

Substrate in this data set: BHET
The following applies: 120 h.

B1: unnamed (protein)
chain: MRPPCCSAGATWLSRSRSRAAVVLTTLVATVSALLIVSAAPALAAPVPAPTTASLEATNGPLATASYTVPNPSGYGSGTITYPTGSGSYPGVVLMPGYQGTQQNLRWLAPRLASWGFVVVNVGTRTLTDDPESRGDQISAAGTQLLAFSNAVGNPITGKVNGTLGAAGHSMGGGGTMVALRDDARFRAGVPLAPYYQNGNFSSVAKPTFSLTCRSDVAAPGNTYALPWYNSMTRAEKLYVEVPGDHLCPMTGYGNKAKQGKWIVSFFSRWLRGDTRFSPFLCGAEREADRNNAALVTRWMDTCPY
For B1, the plate clearing result was “not clears the plate”.

B2: unnamed (protein)
chain: MKTTKGTKIALIAFTLSFSLSAFSGGGGGGNNNGGLPAPNTCTSNCGFETGPNPNLNFVRASRGPLPTRTTVVSRSVDGFGGGTIYYPSNASEEMAAIAVSPGFTATQSSIDWWGPILASHGFVVITIDTNSRFDQPISRGRQLDSALSYLISENSRRNSPISGLVDETRLATMGHSMGGGGALRSASRNRLSAAMPMAPFNVGNNDFNQIRVPTMIMACENDVVAPVGIHARPFYNRIPGSTDKVLLEFNNGPHNCANGESSGNRPLLSTYGVSWMKRFLDKDRRYNQFLCGPNHVANNGISDFRSTCTF
Consider B2, for which the plate clearing entry is “not clears the plate”.

B3: unnamed (protein)
chain: MNSNRTVPLRRAAIAVVLALTLVACDWKGPAPTDASLTAASGPFAVSTLAVPSSAGFGGGTIYYPSNVDGPFAAISVSPGFFSTQSAIAAWGPRLASHGFVVITINTTSLLADPTQRSTEQRQALAHVVNQGNTASSPIFGLVDGNRTGVAGHSMGGGASLISAQADPSIDAAMPFAPWNLGTNFAGITSPTLVLACQADGVAAPNSMASPMYNSIPATTKKMYLSVTNGDHSCANAPTGGNNDVGRYGVAFFKRWLDSDTRYDPWMCGASAPTAGGALNEVRSTCPF
Turning to B3, the plate clearing entry is given as “not clears the plate”.

B4: unnamed (protein)
chain: MRARTRLTALAAGLTLALGAPAATAATADQAQPAASASVEHGPAPTKESIGVDGPYKVASKKAPIDLKRSFYGGTIYYPADAGKGETYGTVVTMPGFLEPGAVMDLVAKRLASHGFVVMRAEALTPFSIPLVRAQAVLSAQKVLHADADLAPIMDTERTALVGHSMGGGGVLHAAAMSEQDAVIPIHPWAQTIFPLVKEPTLTIGGLLDNVAPMVEYTLPIYASIGSETKGLFTDLAGTHWAGLVDNKVIQGRILSFVKLHVDGDTRYEQFVCAPAEKGFTYKSPC
As to B4, the plate clearing result is on record as “not clears the plate”.

B5: unnamed (protein)
chain: MKTTQFLRTAVCTFTLSFSLTAFSGGGGGSSDNDGNLPTPNSCTSNCGFEIGPNPNLNFVRASQGPLPVSTTTVASSVDGFGGGTIYYPSNISDEVAAIAISPGFTARQSSIAWWGPILASHGFVVITIDTNSRFDQPDSRGRQLDSSLSYLINESNRSNSPISGRVDDSRLAAMGHSMGGGGSLRSAARNRLSAAMPLAPFRVGGNDFDQIRVPTMIMACENDVVAPVGVHARPFYNRIPGSTDKVLLEINNGSHSCANGESSGNRPLLSTYGVSWMKRFLDKDRRYNQFLCGPNHEANSQISDFRDTCNF
B5: the plate clearing entry is reported as “not clears the plate”.

B6: unnamed (protein)
chain: MLLVSANALSYTPAPVANPAPIAAPAPCQDCDFNRGPNPTNSSVERLGPYSVATQRVSSSVSGFGGGTIHYPTNIAGKVGAIAVVPGFVSPESSIRWWGPQLASHGFVVITIATNSIFDQPSSRERQLGRALDYVINQTNSSGTAISGLVDTNRLGAMGWSMGGGGSLRLANGGRLSAVIPLAPWNEGASGFSQLTTPTLVVACENDLIAPVRVHASPFYNVIPNTTDKAFLEVNNGSHSCANGGGVNGGLLSKYGVSWMKRFIDEDTRYQQFLCGPNHSANPAISEYRDTCNY
As to B6, the plate clearing entry is “not clears the plate”.

B7: unnamed (protein)
chain: MLGVMGWSMGGGGTLITVDDHPELKAAITLCAWNPGQTYRQNQVPTLLFAGTADVLAGGQSQGFYTSIPETTPKMLFEVQGADHFFANTPEGASGQCGKYGTAWLKVFLVGDECYRPFLLEPPSGTSDFRTNLE
Take B7: the plate clearing entry is listed as “not clears the plate”.

B8: unnamed (protein)
chain: MKKNIFKKACLSALVIAFSLSAHSGGGGGDDGGSDQLPLPDSCNSNCGYEVGPNPTLSALEATQGPLSVSASTVSSSVDGFGGGTIYYPNNASQELATIAVAPGFTNTQSAIQWWGPLLASHGYVVITIDTNGRFDNPGSRSLQLDAALSYLISEGNRSSSDISGLVDENRLATMGFSMGGGGTLISASRNRLSAAVPMAPWNTGGNDFDAIGVPTLIFACEDDSTARINSHASPFYNSIPSSTDKAYMEINNGPHNCANGNNGNGNDALLSTYGVSWMKRFLDKDSRYDQFLCGPNHVANSKINEYRDTCNY
For the protein B8, the plate clearing entry is “not clears the plate”.

B9: unnamed (protein)
chain: MERGNHRAKWVIGLGLLALAAAAQSQTNPFQKGPDPTSTLLNATSGPFSVATSSVSSLAAQGFGGGTIYYPSTTGTYAVLAISPGFTATQSSIAWLGRRIATHGFVVITIDTNSTLDQPPSRATQLIAALRHVTDLSNATVRSRVDASRRGVAGHSMGGGGSLIAARDNPSLKAAVPLTAWSTTKVFSTVQVPTLVVGAENDTIASVSSHSIPFYTSLSSSLDKAYAELNNASHLAPNTTNTPIGRYSVAWVKRFMDNDTRYTPFLCGAPHQSYATSAVFSDYRSTCPY
Turning to B9, the plate clearing result is listed as “not clears the plate”.

B10: unnamed (protein)
chain: MKGIRTRVLPVGKKNTGVKMRCAWRRRVSAFTQSAILHNTHSQETPVMSDPRLSVARLAWAGILLMGAASATCQAQTNPFERGPDPTSSLLNASAGPLATASVAVASPTGFGGGTIYYPTAANTYGVIALCPGFTGTQSSVAWLGSRLASHGFVVVTMNTNSSLDFPASRATQLMAALNHVINNSNATVKSRIDPNRRAVGGHSMGGGGSLIAAQNNPSLKGAYPLTPWNTSTNFSGVGVPTMIIGADGDTTAPVGSHARPFYASLPAATLKAYGELNGATHSTPTSTNTPTGRYAVSWMKRFVDTDTRYSPFLCGAEHTSYATATVFDRYQQNCPY
As for B10, the plate clearing result is reported as “not clears the plate”.

B11: unnamed (protein)
chain: MASRQSKTRLTRRAKLTALAAATLLSFAAQAQTVIFSENFGSGLGQFTTSGTVSTSSGAAVIQGCYNCTDGAIVSKSISTVGYTGLKLSYDRSTTGLDSGEYGVSAYLVSGGAWTAIENITSSSGRVTLTLPAAVENQASVQLRFRVSSSLSTETLTVDNVVLEGTSASGGGGGGAGYEKGPNPTNAALEASAGPFTVATKAVSASSASGYGGGTIYYPTNVTGTLGAVVVIPGYTAYQSSVSWWGSRLASHGFVVMTIDTNSIYDLPPARATQLMAAVNQLKVFNATAGHVIQGKIDTTRMGIMGWSYGGGGTLIAARDNPSLKAAIPFAPKTTTGTDFSGITMPTLIIGCESDSTAPVSSWSIPFYNSIPAAVKKAYLEVNNGDHFCPTTSGPSSVKPILGKYGVSWMKRWLDNDTRYSTFLCGSPHTTDLGNTAVISEYRDNCPY
As to B11, the plate clearing entry is reported as “not clears the plate”.

B12: unnamed (protein)
chain: MRPCSRSTNTTPPLRTRSRPMTALIALATTIGLALTLLTATAAPAAAADLLSQGKPVTSSSTENTSTPASAAVDGNTGTRWSSTFSDPQWLTVDLGATATISQVVLRWEAAYARSFRIQTSDNGTSWTTIHSTTTSTGGAQTLDVNGSGRYIRLYGTQRGTAYGYSLWEFQVYGSGEGTPPGSGIPDPTTVSLEATNGPLTTATYTVPSPSGYGSGTVTYPTASGSYPGIVLMPGYQGTQQNLQWLAPRLASWGFVVINVGTNTLTDDPESRGRQITAAGTQLLALGDAPGNPLSGKLNGTLGATGHSMGGGGVMAALRDDSRFRAGVPTAPYHPNGNFSGVTEPTFFLTCQSDAVAHGDRYAVPWYTSMSQAEKLYIEVPGDHLCPMTGYGNKAKQGKWMVSFFSLWLRADTRFSPFLCGPARDADKNDTSLVTRWMDTCQF
On to B12, for which the plate clearing result is on record as “not clears the plate”.

B13: unnamed (protein)
chain: MPKSDRSTPQPARSQHGGFAKLSLGLTALLMSVLVHAQSNPFERGPEPTVASLEAAAGPYAVQTTQVGKGNSNDYARGTVYYPVANDGQFALIAIVPGYTERQAGVSWWGSRLASHGFVVVTVDTNAPGEFPPSRARALKDALATVVKLSQTSSSPFFGKIDASRQGIMGHSMGGGATLELARSNSKLKAAIPFAPWNSNSKVYTRVKVPTLIISCQRDAVAPVNSHANKFYDSFSATLDKALLEVTGGDHYCASTSASAANKAVVGKYGVAWMKRFLDNDTRYSQFLCGAPHQADLAGPIISSYKDSCPY
Turning to B13, the plate clearing result is “clears the plate (z > 3 vs empty vector)”.

B14: unnamed (protein)
chain: MPSADEPDAGTAPPPEPGSNHWERGPEPTAESASMPGPYQVESLTAELPDRVEYLSQTLWYPTDAEPPFAGFAIVPGFVSPEGSIAEWGPFLASHGIVVLTIGTNTGGDLPDVRALALAAAVEVLKGEHTRSGSPLEGSMDTDRMAVGGWSMGGGGTLLAIAADPSLKAGIGLTPWHIGALPFTEISVPTLMFAGTADVLAGGMSQGFYDAIPASTPKTLFEILGADHFYSNNPLLPNIEVGRYGLSWLKVFLEGDERYRQFLSVEPMGASDFRTTAP
Turning to B14, the plate clearing result was “not clears the plate”.

B15: unnamed (protein)
chain: MKLTFVPLAITVVATLTCTSVVAKINLVESQVIQISELKKPAESLIDKSAQTAALPIPPSIATCIDDSAISADNLSQAKDNGPFAISSKDIPRQSAIGFGGGTIHYPINASGCGLLAAIAVVPGFVSYESSIKWLGPRLAAWGFVVITINTDSIYDNPDSRARQLSAALDTIISDDNVGSIVDPNRLGAIGWSMGGGGALKLATVRDEVRAIVPLAPYHDKDYGEVSTPTLVIACQFDRIARNKKYGSMFYDKAIGPKMKVELNNASHFCPSYRFNEILLSKPIIAWMQRYINEDERFDKLLCANETYSENPRFSSYDYANCS
B15: the plate clearing entry was “not clears the plate”.
